Measured values published in the DeepSol protein solubility set.

Assay: soluble on expression in E. coli; label from the status in PepcDB or PDB records

| Sequence | soluble on expression in E. coli |
| --- | --- |
| MRGHHHHHHHGSMTIEFVGVEKIYPGGARSVRGVSFQIREGEMVGLLGPSGSGKTTILRLIAGLERPTKGDVWIGGKRVTDLPPQKRNVGLVFQNYALFQHMTVYDNVSFGLREKRVPKDEMDARVRELLRFMRLESYANRFPHELSGGQQQRVALARALAPRPQVLLFDEPFAAIDTQIRRELRTFVRQVHDEMGVTSVFVTHDQEEALEVADRVLVLHEGNVEQFGTPEEVYEKPGTLFVASFIGESNVWTRAVQNGRIEVAGAALPVDPAVSEGSEVAVVVRPKDVELQPASEREAHAQVVRSAFKGSYSACWIRTKDGEVWEVHVPSADRHRWSPGAWVHMNVTRWFIFPR | soluble |
| MAHHHHHHMRARRWWHGPYSLLYTLNLLLSLSLSPSHAGGGKEVSTTHTYTHPSTMQRGANVRPIKLAEKVFSTKTVCPTAASQLYVAHGLLGNSGNWATASRHLVEHSALKDKLRRAIAVDMRNHGSSTHSSDHTNAALASDLEALVLREQQELDRAFCDPSSCTTRNAILIGHSMGGLTVMGALLRRANEHHLLTSLVDHCDDVGSTSSYGAWPAEHRRQCIAGMRAVNEEFGFASSQPIAEVLFNNCRASSSLSTGSGNASRIPLLGRVAGAIIVDVTPTMRLGEQRSCADNVKETLERMTQVRLDEIHSYKDATAELIRVGMADEEMRAFVATNIALDPKDKSKPAQWKCNLPVLAGDYGSFQPSITSWFTSSATTMGPASSAAAPRLCTLPVMFVFGGESPYNEPDHRQHISRFFSNATQVEVAGAGHFVHYEKPKEFTDAVAPFIASLISQP | not soluble |
| GSHMSLSNKLTLDKLDVKGKRVVMRVDFNVPMKNNQITNNQRIKAAVPSIKFCLDNGAKSVVLMSHLGRPDGVPMPDKYSLEPVAVELKSLLGKDVLFLKDCVGPEVEKACANPAAGSVILLENLRFHVEEEGKGKDASGNKVKAEPAKIEAFRASLSKLGDVYVNDAFGTAHRAHSSMVGVNLPQKAGGFLMKKELNYFAKALESPERPFLAILGGAKVADKIQLINNMLDKVNEMIIGGGMAFTFLKVLNNMEIGTSLFDEEGAKIVKDLMSKAEKNGVKITLPVDFVTADKFDENAKTGQATVASGIPAGWMGLDCGPESSKKYAEAVTRAKQIVWNGPVGVFEWEAFARGTKALMDEVVKATSRGCITIIGGGDTATCCAKWNTEDKVSHVSTGGGASLELLEGKVLPGVDALSNI | soluble |
| MVKVYIHDNKVDSDYRAPHNSGTELSLDELAKLGVIYKYCANEEEVNEIARQREYKNRDVVNICEGSFKSEAEFNEKLATFYQEHLHEDEEIRYCLEGAGYFDVRDASTPENWIRCLVESGDLLILPPGIYHRFTLTTSNHIKALRLFKDEPKWQAINRSNQADSLPVRKDYIALINQY | soluble |
| MGSDKIHHHHHHMIGKRFFQTTSKKIAFAFDIDGVLFRGKKPIAGASDALKLLNRNKIPYILLTNGGGFSERARTEFISSKLDVDVSPLQIIQSHTPYKSLVNKYSRILAVGTPSVRGVAEGYGFQDVVHQTDIVRYNRDIAPFSGLSDEQVMEYSRDIPDLTTKKFDAVLVFNDPHDWAADIQIISDAINSENGMLNTLRNEKSGKPSIPIYFSNQDLLWANPYKLNRFGQGAFRLLVRRLYLELNGEPLQDYTLGKPTKLTYDFAHHVLIDWEKRLSGKIGQSVKQKLPLLGTKPSTSPFHAVFMVGDNPASDIIGAQNYGWNSCLVKTGVYNEGDDLKECKPTLIVNDVFDAVTKTLEKYA | not soluble |
| MVTHSKFPAAGMSRPLDTSLRLKTFSSKSEYQLVVNAVRKLQESGFYWSAVTGGEANLLLSAEPAGTFLIRDSSDQRHFFTLSVKTQSGTKNLRIQCEGGSFSLQSDPRSTQPVPRFDCVLKLVHHYMPPPGTPSFSLPPTEPSSEVPEQPPAQALPGSTPKRAYYIYSGGEKIPLVLSRPLSSNVATLQHLCRKTVNGHLDSYEKVTQLPGPIREFLDQYDAPL | soluble |
| MTPHVMKRDGCKVPFKSERIKEAILRAAKAAEVDDADYCATVAAVVSEQMQGRNQVDINEIQTAVENQLMSGPYKQLARAYIEYRHDRDIEREKRGRLNQEIRGLVEQTNASLLNENANKDSKVIPTQRDLLAGIVAKHYARQHLLPRDVVQAHERGDIHYHDLDYSPFFPMFNCMLIDLKGMLTQGFKMGNAEIEPPKSISTATAVTAQIIAQVASHIYGGTTINRIDEVLAPFVTASYNKHRKTAEEWNIPDAEGYANSRTIKECYDAFQSLEYEVNTLHTANGQTPFVTFGFGLGTSWESRLIQESILRNRIAGLGKNRKTAVFPKLVFAIRDGLNHKKGDPNYDIKQLALECASKRMYPDILNYDQVVKVTGSFKTPMGCRSFLGVWENENGEQIHDGRNNLGVISLNLPRIALEAKGDEATFWKLLDERLVLARKALMTRIARLEGVKARVAPILYMEGACGVRLNADDDISEIFKNGRASISLGYIGIHETINALFGGEHVYDNEQLRAKGIAIVERLRQAVDQWKEETGYGFSLYSTPSENLCDRFCRLDTAEFGVVPGVTDKGYYTNSFHLDVEKKVNPYDKIDFEAPYPPLANGGFICYGEYPNIQHNLKALEDVWDYSYQHVPYYGTNTPIDECYECGFTGEFECTSKGFTCPKCGNHDASRVSVTRRVCGYLGSPDARPFNAGKQEEVKRRVKHLGNGQIG | not soluble |
| KDAVLVNSELKNIYMKDVINKTNMKITKKIGTQLIFNTNEKTRVWDDDNYNKVISSNVSPAQERRFKEEEEVDIYALIKSYSVICKEQYNYVDGGLIKTSDREKLDSTIYMNIFGEQIPLKEQSKYKITFQNKFVTFQEIDVRLRKSLMSDNRIKLYEHNSICKKGYWGIHYKDNTTKFTDLFTHPNYTDNETIDMSKVSHFDVYLNEEFSKN | soluble |
| MGSDKIHHHHHHEEPCPENGRVTFTVAQTRATQEGTFEKGNSIGVFAIEPKTGVYWATNNKYTYDGRAFKPATEEDNIIVTVGTDLDFYVYYPFKEGQTDITAISHAIGDQQEKSGWLSADFLTASYTDVIQDYTIPLHFEHRLSTVEVRVEGSDRVDGARMENVKYGSRFNLLTGKTVTDETRGSYAMYRYSSGNLTTVFRMTIPAQTLTTTSNYITLTGTPDMKLRGTSDMTTEPGRIHNYRIDYKIRITVLDYPQGGSTTGAGLYDMGSTCTVTASVNGGYEFAGWYEDGRIVSNDTRYSFEVLSDRTLEPRYRNYGGWSVTLTANPSVIGWQGGRSSLVAGASRGVFVNGVAENTQTAVPSLSGGAEGFLLSGNTVTVSENPSGSSRSCVFTASHGGSSATATITQEGSPVSYYFSYADGGTSHTEYPDDSSAGSFILDITSYKKTGNSTKALSWNASGDSWIHVNGSSVSYDENPAKERRTGLVTLKQDESGKTLSLKIVQPGKTSIDIEQ | not soluble |
| PVYMVYVSQDRLTPSAKHAVAKAITDAHRGLTGTQHFLAQVNFNEQPAGNVFLGGVQQGGDTIFVHGLHREGRSADLKGQLAQRIVDDVSVAAEIDRKHIWVYFGEMPAQQMVEYGRFLPQPGHEGEWFDNLSSDERAFMETNVDVSRT | soluble |
| IGKVKLSARGTFTYARNKIVEYDELPQRYPWMAQTGMRINENYLYIAERLYTKEDFIVSKNGSGIETYTLRSELPQSTLGGLLGPGDIKYKDINGDGIIDSYDKVRGVGHPKVPEIVYGFGLNIEYKGFYASAFFQGAGNCSVLLGGNTPEGWFPFSWGVDQSNYRTFALDRWTEKNPSQNVLMPRLHKDNTNAANNSVASTWWLRNGGFLRLKNVELGYQLPKKLLSKINLQAARIYLMGYNIALWDDLKYFDPEAGNANGGNTYPKARTFTLGIDFTF | not soluble |
| MGSDKIHHHHHHMISDSISKRRSIRKYKNQSISHETIEKIIEAGINAPSSKNRQPWRFVVITEKEKESMLKAMSKGIQNEINDNGLLPGSRQHIAGANYTVEIMKQAPVTIFILNILGKSPLEKLSPEERFYEMANMQSIGAAIQNMSLTAVELGLGSLWICDVYFAYRELCEWLNTDSQLVAAISLGYPDEEPSRRPRLQLSDVTEWR | not soluble |
| MLASFLKLKTYCEQEGFKGWDPYDGLNSKVFRALPLLKQSALCRLIVIQGFKRSPINLRRLALVPKEYNAKGIGLFLQGYCNLYRLVERNPQLTKELGSREELLEQVKKLADLLLELRSPGDYSGACWGYNFDWQARRLFLFPKYTPTVVATNFCATALMEAYEVTRQQEYLDVALSAAQFVIKDLHRTAYRDGFLFSYSPLDGNDTVFNASLLGARLLSYCYHYTKDEAYRTLARQTISACCAAQAEDGSWVYGMLPVQSWIDSFHTGYNLDALIAYQELTGDISFAENIERGLSYYLEHFFEADGMPKYYHDRTYPIDIHCPGQLFVSLARLHRYDEHRELVDRVMAWTISSMQDKKGYFYYQMKPGLSSKIPYMRWSNAFMFCAMSYYLINYKEISGGDFSNDQ | not soluble |
| ELEKSEELYKSLLEDASDAIVVVDENEIVKMVNKMAEEFFGHSSEEVVGLPLSRMLVLVKTHNIPIVYNFFQEVGKGRHVAEEIRFSRVEGEQVVGLIHANTVTIGSERLIQAIIRDVT | not soluble |
| MLSGYIAGAIMKQEVILVLDCGATNVRAIAVNRQGKIVARASTPNASDIAMENNTWHQWSLDAILQRFADCCRQINSELTECHIRGIAVTTFGVDGALVDKQGNLLYPIISWKCPRTAAVMDNIERLISAQRLQAISGVGAFSFNTLYKLVWLKENHPQLLERAHAWLFISSLINHRLTGEFTTDITMAGTSQMLDIQQRDFSPQILQATGIPRRLFPRLVEAGEQIGTLQNSAAAMLGLPVGIPVISAGHDTQFALFGAGAEQNEPVLSSGTWEILMVRSAQVDTSLLSQYAGSTCELDSQAGLYNPGMQWLASGVLEWVRKLFWTAETPWQMLIEEARLIAPGADGVKMQCDLLSCQNAGWQGVTLNTTRGHFYRAALEGLTAQLQRNLQMLEKIGHFKASELLLVGGGSRNTLWNQIKANMLDIPLKVLDDAETTVAGAALFGWYGVGEFNSPEEARAQIHYQFRYFYPQTEPEFIEEV | not soluble |
| MGSDKIHHHHHHADILNCILPAEMLTGTDIDYNRPYDKSLNAYPIYIEVNNGTDLTRLAPTFELTEGASIEPANGSTQNFTNPVRYTVTSEDKNWHRTYAINIHYPETKSIPTVFNFENVKTVPYNKNEYYVLYEAASGYSTLTWSSGNQGFALTGSGYTPNDFPTSISPNGRTGNCLQLITRKTGSLGTLVGMPIAAGNLFIGSFDIGSAMSDALSATKFGTTFYYEPIKLVGYYKYKAGPEFYENGESTNRKDVFNIYALFYEKTKDVQMLDGHIAKNNYEHENMVAAAVITDTHETSEWTRFELDFNYEHYGKTIDPQKLANGGYNVSIVLSASKDGDVFQGAPGSTLLIDDLELVCKQPLR | not soluble |
| MAKPIMAKATAVWLVDNTTLSFKQIADFVGMHELEVQGIADGDVAQGVKGFDPIANNQLTQDEIDTAQNNPLHKLKLKFNAAAQGEEKRRGPRYTPLSKRQDRPASILWLVKFHPELTDGQISKLIGTTKPTIQAIRERTHWNISNIQPIDPVALGLCKQSELDMAVQKAAAKKAADAPVMLEHHHHHH | soluble |
| MRKYKLGIYEKALPKNISWQDRLSIAKSCGFDFVEMSIDETDERLARLEWSKEQRLALVNSIVTTGITIPSMCLSGHRRFPFGTRDQATREKAYEIMEKAIQFAVDTGIRTIQLAGYDVYYEEQDQGTIERFQQGLAWAVELAASNQVTLAVEIMDTPFMSSISRWKKWDEMINSPWFTVYPDIGNLSAWNDNIEQELALGINKISAIHLKDTYKITKDCAGQFRDVPFGDGCVDFKGFFEILAKLNYRGAFLIEMWTEKAEEPIAEIINARRWIEQKMKEGGFEC | not soluble |
| MGSDKIHHHHHHMNALTWLTKHSQAVIFRKKLAGLTACSQMIELSTPLNDGQRKFIFRQQSARATLLAINYAQEAYILQHLDALPFTPKVYYQTANSSLLTWLEGKPATAFDPDLLEQLALQLATLHAYPLPKQRTILQLAERCQLLWDRLTPSQQHQLNFCPPFKKIEPLQLAICHHDLHLANLIQHQQQLFIIDWEYSAISDPVLEIALFFQANTLNSVQKQFFLTTYLSKINLNEPLFKQKMAEYTPAIQQLSQLWYALSEAIT | not soluble |
